Results published in publication PMC8795117.

How the values were obtained:
[1] = target: BmdB (Thermoactinomyces vulgaris F-5595)
[2] = target: BmdC (Thermoactinomyces vulgaris F-5595); assay: SEC; size-exclusion chromatography of BmdC alone (Supplementary Fig. 2e)
[3] = target: BmdB (Thermoactinomyces vulgaris F-5595); assay: SEC; full-length BmdB and BmdC at 1–8 μM mixed (increasing BmdC, fixed BmdB), Superdex200 Increase 10/300, 50 mM Tris-HCl pH 7.5, 200 mM NaCl, 1 mM DTT

decrease in oxidation to bacillamide D in peptide synthesis assays [1] [%] | stoichiometry N [2] | stoichiometry N (BmdB molecules per BmdC dimer) [3] | Substance
50 | – | – | BmdC_D225R (enzyme)
– | 2 | 2 | BmdC (enzyme)
